From patent US20230381328A1, “COMPOUND FOR THE PREVENTION OR TREATMENT OF MYASTHENIA GRAVIS” (ABLEVIA BIOTECH GMBH, priority 2020, published 2023) come the findings set out here.

Where no end group is shown, it is not given here.

The experiment has as its target monoclonal antibody mAB 198. The experiment is described as follows: peptide microarray, fluorescence, cyclic peptide.

VRLRWNPADYS (also: cyclic peptide, mode of cyclisation not given here): the relative signal [%] came out at 10.5%.
The value for GSLRFNPADYG (also: cyclic peptide, mode of cyclisation not given here) was 10.4%.
The value for RLRWNPADYGS (also: cyclic peptide, ring type and places not given here) was 9.7%; that for NPADYGY (also: cyclic peptide, ring type and places not given here) [NPADYGY, cyclic mimotope] was 11.8%; that for GSLRWNPADYQ (also: cyclic peptide, mode of cyclisation not given here) was 9.7%.
The value for LRFNPAD (also: cyclic peptide, mode of cyclisation not given here) [LRFNPAD, cyclic mimotope] was 8.6%; that for RLHWNPADY (also: cyclic peptide, ring type and places not given here) was 10.8%; that for LRWNPADYR (also: cyclic peptide, mode of cyclisation not given here) was 10.3%.
In turn, RLRTNPADY (also: cyclic peptide, ring type and places not given here) had a relative signal [%] of 8.6%.
The value for LRPNPADYG (also: cyclic peptide, mode of cyclisation not given here) was 10%.
The value for RLRGNPADYGG (also: cyclic peptide, ring type and places not given here) was 9%; that for RWNPADF (also: cyclic peptide, ring type and places not given here) [RWNPADF, cyclic mimotope] was 9.1%; that for VRLRINPADYG (also: cyclic peptide, mode of cyclisation not given here) was 10%.
The value for DVRLRYNPADY (also: cyclic peptide, mode of cyclisation not given here) was 10.5%.
With GSLRWNPADYN (also: cyclic peptide, mode of cyclisation not given here), the relative signal [%] worked out at 10%.
For the molecule RPNPADYGG (also: cyclic peptide, ring type and places not given here), the relative signal [%] was found to be 11.9%.
The value for SLYWNPADY (also: cyclic peptide, mode of cyclisation not given here) was 9.4%; that for ALRWNPADY (also: cyclic peptide, mode of cyclization not given here) was 11.5%; that for NPADYGN (also: cyclic peptide, mode of cyclisation not given here) [NPADYGN, cyclic mimotope] was 8.7%.
For RSRWNPADY (also: cyclic peptide, ring type and places not given here), the relative signal [%] turned out to be 9.8%.
The value for RLRWNPADYHG (also: cyclic peptide, ring type and places not given here) was 10.1%; that for GGSLRLNPADY (also: cyclic peptide, mode of cyclisation not given here) was 8.5%; that for LRWNPADYPGI (also: cyclic peptide, mode of cyclisation not given here) was 8.9%.
The value for GSLRWNPADYT (also: cyclic peptide, mode of cyclisation not given here) was 8.7%; that for DVRLRQNPADY (not fully specified; cyclic peptide) [DVRLRONPADY, cyclic mimotope] was 8.8%; that for WNPDDYR (also: cyclic peptide, mode of cyclisation not given here) [WNPDDYR, cyclic mimotope] was 9%.
The value for VRLRGNPAD (also: cyclic peptide, mode of cyclisation not given here) was 9.9%; that for RLLWNPADY (also: cyclic peptide, ring type and places not given here) was 9.7%.
In the case of GSLRINPADYG (also: cyclic peptide, mode of cyclisation not given here), the relative signal [%] was determined as 12.1%.
The value for QLRWNPADY (also: cyclic peptide, ring type and places not given here) was 10.7%; that for RLRQNPADY (not fully specified; cyclic peptide) [RLRONPADY, cyclic mimotope] was 10.6%.
With RWNPADR (also: cyclic peptide, ring type and places not given here) [RWNPADR, cyclic mimotope], the relative signal [%] was 11%.
For RLRWNPADYGP (also: cyclic peptide, ring type and places not given here), the relative signal [%] came to 10%.
The value for TLRWNPADY (also: cyclic peptide, mode of cyclisation not given here) was 9.9%; that for RIRWNPADY (also: cyclic peptide, ring type and places not given here) was 11.5%; that for GGSLRYNPADY (also: cyclic peptide, mode of cyclisation not given here) was 11.5%.
The value for RLRPNPADY (also: cyclic peptide, ring type and places not given here) was 9.8%; that for RANPADY (also: cyclic peptide, ring type and places not given here) [RANPADY, cyclic mimotope] was 12.2%.
Molecule LRWNPADYGGF (also: cyclic peptide, mode of cyclisation not given here) gave a relative signal [%] of 10.3%.
The value for GSLRWNPADYD (also: cyclic peptide, mode of cyclisation not given here) was 10.2%; that for GGSLRWNPADR (also: cyclic peptide, mode of cyclisation not given here) was 10.3%.
The value for LRGNPAD (also: cyclic peptide, mode of cyclisation not given here) [LRGNPAD, cyclic mimotope] was 9.1%.
The value for SLRWNPADYHG (also: cyclic peptide, mode of cyclisation not given here) was 8.7%; that for VRLRLNPADYG (also: cyclic peptide, mode of cyclisation not given here) was 9.7%; that for DVRLRWNPSDY (also: cyclic peptide, mode of cyclisation not given here) was 10.5%.
